This is an account of results in the array DNA melting data of Ke et al..

This data set is described as follows: melting temperature; UV melt of duplexes.

With “GTCCACGCCCGGTGCGACGG+CCGTCGCACCGGGCGTGGAC ((((((((((((((((((((+))))))))))))))))))))”, the Tm runs as follows: (sodium 0.07 M, strand 2 µM) 70.9 °C; (sodium 0.12 M, strand 2 µM) 73.9 °C; (sodium 0.22 M, strand 2 µM) 77.3 °C; (sodium 0.62 M, strand 2 µM) 79.8 °C; (sodium 1.02 M, strand 2 µM) 81.1 °C.
With “AGCAAGTCGAGCAGGGCCTACGTTT+AAACGTAGGCCCTGCTCGACTTGCT (((((((((((((((((((((((((+)))))))))))))))))))))))))”, the Tm runs as follows: (sodium 0.07 M, strand 2 µM) 68.3 °C; (sodium 0.12 M, strand 2 µM) 72.6 °C; (sodium 0.22 M, strand 2 µM) 76.3 °C; (sodium 0.62 M, strand 2 µM) 80 °C; (sodium 1.02 M, strand 2 µM) 81.5 °C.
Consider “ATTGATATCCTTTTCTATTCATCTTTCATT+AATGAAAGATGAATAGAAAAGGATATCAAT ((((((((((((((((((((((((((((((+))))))))))))))))))))))))))))))”, for which the Tm by setting is: (sodium 0.07 M, strand 2 µM) 53.5 °C; (sodium 0.12 M, strand 2 µM) 58.3 °C; (sodium 0.22 M, strand 2 µM) 62.3 °C; (sodium 0.62 M, strand 2 µM) 68.6 °C; (sodium 1.02 M, strand 2 µM) 70.4 °C.
For the substance “GCTAAAAAGAGAGAGAGATCG+CGATCTCTCTCTCTTTTTAGC (((((((((((((((((((((+)))))))))))))))))))))”, the Tm (sodium 1 M, strand 3 µM) is 69 °C.
In the case of “GTTATTCCGCAGTCCGATGGCAGCAGGCTC+GAGCCTGCTGCCATCGGACTGCGGAATAAC ((((((((((((((((((((((((((((((+))))))))))))))))))))))))))))))”, the Tm by setting is: (sodium 0.07 M, strand 2 µM) 70.6 °C; (sodium 0.12 M, strand 2 µM) 74.9 °C; (sodium 0.22 M, strand 2 µM) 78.1 °C; (sodium 0.62 M, strand 2 µM) 82.4 °C; (sodium 1.02 M, strand 2 µM) 84.1 °C.
On to “GATATAGCAAAATTCTAAGTTAATA+TATTAACTTAGAATTTTGCTATATC (((((((((((((((((((((((((+)))))))))))))))))))))))))”, for which the Tm is 49.1 °C (sodium 0.07 M, strand 2 µM); 53.5 °C (sodium 0.12 M, strand 2 µM); 57.7 °C (sodium 0.22 M, strand 2 µM); 63.3 °C (sodium 0.62 M, strand 2 µM); 66.1 °C (sodium 1.02 M, strand 2 µM).
Turning to “AATATATGATCATCGAT+ATCGATGATCATATATT (((((((((((((((((+)))))))))))))))))”, the Tm (sodium 0.12 M, strand 3 µM) is 50 °C.
Consider “CGGGACCAACTAAAGGAAAT+ATTTCCTTTAGTTGGTCCCG ((((((((((((((((((((+))))))))))))))))))))”, for which the midpoint of thermal melting (Tm) reads like this: (sodium 0.07 M, strand 2 µM) 53.7 °C; (sodium 0.12 M, strand 2 µM) 57.7 °C; (sodium 0.22 M, strand 2 µM) 61.7 °C; (sodium 0.62 M, strand 2 µM) 66.7 °C; (sodium 1.02 M, strand 2 µM) 68.5 °C.
For the substance “CAGCAGCAGCAGCAGCAGCAGCAGCAGCAG+CTGCTGCTGCTGCTGCTGCTGCTGCTGCTG ((((((((((((((((((((((((((((((+))))))))))))))))))))))))))))))”, under “sodium 0.15 M, strand 0.0001 M”, the Tm was found to be 83 °C.
Consider “GCCAACTCCGTCGCCGTTCGTGCGC+GCGCACGAACGGCGACGGAGTTGGC (((((((((((((((((((((((((+)))))))))))))))))))))))))”, for which the Tm is, setting by setting: (sodium 0.07 M, strand 2 µM) 73.5 °C; (sodium 0.12 M, strand 2 µM) 76.5 °C; (sodium 0.22 M, strand 2 µM) 80.6 °C; (sodium 0.62 M, strand 2 µM) 83.2 °C; (sodium 1.02 M, strand 2 µM) 84.6 °C.
For “ATATATAGCTATATAT+ATATATAGCTATATAT ((((((((((((((((+))))))))))))))))”, where the note is “sodium 0.12 M, strand 5 µM”, the Tm was determined as 39.1 °C.
As to “CAACTTGATATTAATA+TATTAATATCAAGTTG ((((((((((((((((+))))))))))))))))”, the Tm (sodium 1 M, strand 18 µM) was determined as 52 °C.
For the substance “GCCGAGGTCCATGTCGTACGC+GCGTACGACATGGACCTCGGC (((((((((((((((((((((+)))))))))))))))))))))”, the Tm (sodium 0.1 M, strand 4 µM) came out at 69.5 °C.
With “AATATATATAGAGTGCGCGCAA+TTGCGCGCACTCTATATATATT ((((((((((((((((((((((+))))))))))))))))))))))”, the Tm (sodium 0.12 M, strand 3.3 µM) turned out to be 64.1 °C.
With “AGTCTGGTCTGGATCTGAGAACTTCAGGCT+AGCCTGAAGTTCTCAGATCCAGACCAGACT ((((((((((((((((((((((((((((((+))))))))))))))))))))))))))))))”, the Tm was 66.3 °C (sodium 0.07 M, strand 2 µM); 70.4 °C (sodium 0.12 M, strand 2 µM); 74.5 °C (sodium 0.22 M, strand 2 µM); 78.8 °C (sodium 0.62 M, strand 2 µM); 80.6 °C (sodium 1.02 M, strand 2 µM).
Regarding “AAAAAAAAAGCTTTTTTTTT+AAAAAAAAAGCTTTTTTTTT ((((((((((((((((((((+))))))))))))))))))))”, the Tm (sodium 0.12 M, strand 5 µM) stood at 51 °C.
